Measured values as given in the supplement of paper PMC7877785.
± gives the uncertainty stated by the source.

Assay: self-splicing fitness, log relative to wild type (ln ratio); higher = more splicing; Tetrahymena group I intron in knt gene, E. coli kanamycin selection, DiMSum; sequences stand for … in CUCUCU…GGAGGGAAAAGUUAUCAGGCAUGCACCUGGUAGCUAGUCUUUAAACCAAUAGAUUGCAUCGGUUUAAAAGGCAAGACCGUCAAAUUGCGGGAAAGGGGUCAACAGCCGUUCAGUACCAAGUCUCAGGGGAAACUUUGAGAUGGCCUUGCAAAGGGUAUGGUAAUAAGCUGACGGACAUGGUCCUAACCACGCAGCCAAGUCCUAAGUCAACAGAUCUUCUGUUGAUAUGGAUGCAGUUCACAGACUAAAUGUCGGUCGGGGAAGAUGUAUUCUUCUCAUAAGAUAUAGUCGGACCUCUCCUUAAUGGGAGCUAGCGGAUGAAGUGAUGCAACACUGGAGCCGCUGGGAACUAAUUUGUAUGCGAAAGUAUAUUGAUUAGUUUUGGAGUACUCGUGGUCG
Method in brief: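 Fitness was computed with DiMSum as the error-weighted combination of replicate fold changes, kanamycin versus none, each normalised to wild type. The library randomised all eight intron nucleotides of the P1ex region, with the intron placed in the knt kanamycin-resistance gene on pET-22b(+) in E. coli BL21(DE3). Six replicate transformations were grown overnight at 37°C or 30°C on LB agar with or without 25 μg/mL kanamycin, plus 100 μg/mL carbenicillin, 50 μM IPTG and 0.2% rhamnose. Pooled colonies were amplicon-sequenced on an Illumina HiSeq 2500.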

Sequence	self-splicing fitness (ln) (30 °C)	self-splicing fitness (ln) (37 °C)
UCGGAGCAAUAUUACGCGGG	-4.21 ± 0.31	-2.77 ± 0.27
UCGGAGCAAUAUUACGGCAU	-2.73 ± 0.21	-1.97 ± 0.37
UCGGAGCAAUAUUACGGCCC	–	-2.31 ± 0.45
UCGGAGCAAUAUUACGGCGA	-1.1 ± 0.18	-0.689 ± 0.23
UCGGAGCAAUAUUACGGGCC	-4.15 ± 0.39	-3.6 ± 0.33
UCGGAGCAAUAUUACGGGGG	-2.73 ± 0.22	-2.32 ± 0.3
UCGGAGCAAUAUUACGGGUA	–	-1.76 ± 0.45
UCGGAGCAAUAUUACGGUCC	-2.33 ± 0.4	-1.73 ± 0.49
UCGGAGCAAUAUUACGUAAC	-3.51 ± 0.48	–
UCGGAGCAAUAUUACGUAUU	-4.15 ± 0.18	-2.34 ± 0.15
UCGGAGCAAUAUUACGUUAU	-3.36 ± 0.38	-2.11 ± 0.38
UCGUAGCAAUAUUACGACCU	-2.89 ± 0.22	-0.916 ± 0.15
UCGUAGCAAUAUUACGAUGU	-3.41 ± 0.24	-2.24 ± 0.2
UCGUAGCAAUAUUACGCACU	-2.67 ± 0.11	-2.16 ± 0.11
UCGUAGCAAUAUUACGCCGG	-0.692 ± 0.13	-2.41 ± 0.28
UCGUAGCAAUAUUACGCGAA	-2.68 ± 0.23	-0.932 ± 0.19
UCGUAGCAAUAUUACGCGGU	-2.32 ± 0.15	-1.6 ± 0.18
UCGUAGCAAUAUUACGCGUA	-1.16 ± 0.14	-0.895 ± 0.11
UCGUAGCAAUAUUACGCGUC	–	-2.59 ± 0.33
UCGUAGCAAUAUUACGCUAA	–	-1.48 ± 0.29
UCGUAGCAAUAUUACGCUGG	-3.09 ± 0.15	-1.88 ± 0.15
UCGUAGCAAUAUUACGGAAU	–	-1.55 ± 0.27
UCGUAGCAAUAUUACGGAGU	-2.81 ± 0.24	–
UCGUAGCAAUAUUACGGCCG	-1.51 ± 0.36	-0.102 ± 0.27
UCGUAGCAAUAUUACGGGCU	–	-2.41 ± 0.49
UCGUAGCAAUAUUACGGUUC	-3.12 ± 0.3	-2.07 ± 0.27

Sequence	self-splicing fitness (ln) (30 °C)	self-splicing fitness (ln) (37 °C)
UCGUAGCAAUAUUACGUAGA	-0.639 ± 0.14	0.461 ± 0.14
UCUAAGCAAUAUUACGACCA	-1.73 ± 0.24	-0.242 ± 0.19
UCUAAGCAAUAUUACGACGA	-0.414 ± 0.2	0.116 ± 0.17
UCUAAGCAAUAUUACGAUGG	-0.0699 ± 0.087	0.158 ± 0.11
UCUAAGCAAUAUUACGAUUG	-3.4 ± 0.18	-2.26 ± 0.17
UCUAAGCAAUAUUACGCAAA	-3.34 ± 0.21	-2.97 ± 0.2
UCUAAGCAAUAUUACGCCAC	-2.44 ± 0.36	-3.11 ± 0.35
UCUAAGCAAUAUUACGCGAG	-3.69 ± 0.25	-1.6 ± 0.17
UCUAAGCAAUAUUACGCGCG	-1.87 ± 0.14	-1.74 ± 0.18
UCUAAGCAAUAUUACGCGCU	-4.34 ± 0.46	-1.6 ± 0.27
UCUAAGCAAUAUUACGCGGG	-3.14 ± 0.2	-1.41 ± 0.18
UCUAAGCAAUAUUACGCGGU	-3.76 ± 0.29	-1.4 ± 0.2
UCUAAGCAAUAUUACGCGUG	-1.43 ± 0.087	-1.15 ± 0.11
UCUAAGCAAUAUUACGGAAG	-4.81 ± 0.46	-1.49 ± 0.17
UCUAAGCAAUAUUACGGAGA	-1.6 ± 0.22	-1.3 ± 0.18
UCUAAGCAAUAUUACGGAGC	–	-1.68 ± 0.37
UCUAAGCAAUAUUACGGCGC	-1.94 ± 0.34	-1.43 ± 0.26
UCUAAGCAAUAUUACGGCGG	-0.251 ± 0.076	-0.431 ± 0.096
UCUAAGCAAUAUUACGGCUA	-1.86 ± 0.27	-3.14 ± 0.47
UCUAAGCAAUAUUACGGGAG	-3.79 ± 0.16	-2.5 ± 0.14
UCUAAGCAAUAUUACGGGUU	-3.97 ± 0.17	-2.93 ± 0.19
UCUAAGCAAUAUUACGGUGG	-1.18 ± 0.082	-0.0857 ± 0.13
UCUAAGCAAUAUUACGGUUC	-3.4 ± 0.19	-2.39 ± 0.2
UCUAAGCAAUAUUACGGUUU	-3.21 ± 0.43	-2.56 ± 0.31
UCUAAGCAAUAUUACGUAAG	-0.798 ± 0.075	-0.333 ± 0.1
UCUAAGCAAUAUUACGUACU	-2.18 ± 0.17	-1.86 ± 0.21

Sequence	self-splicing fitness (ln) (30 °C)	self-splicing fitness (ln) (37 °C)
UCUAAGCAAUAUUACGUGGA	-2.82 ± 0.19	-3.51 ± 0.39
UCUAAGCAAUAUUACGUUGU	-4.19 ± 0.24	-1.86 ± 0.15
UCUCAGCAAUAUUACGAAAU	–	-2.86 ± 0.32
UCUCAGCAAUAUUACGAACU	-1.75 ± 0.17	-1.34 ± 0.21
UCUCAGCAAUAUUACGACAU	-2.714 ± 0.018	-1.49 ± 0.034
UCUCAGCAAUAUUACGACGG	-0.806 ± 0.071	-0.119 ± 0.094
UCUCAGCAAUAUUACGAGUA	-1.35 ± 0.066	-0.132 ± 0.077
UCUCAGCAAUAUUACGAUUC	-2.66 ± 0.28	-1.94 ± 0.27
UCUCAGCAAUAUUACGCCUU	-3.77 ± 0.33	-2.15 ± 0.21
UCUCAGCAAUAUUACGCGCG	-2.42 ± 0.21	-1.71 ± 0.24
UCUCAGCAAUAUUACGCGUU	-2.55 ± 0.14	-1.55 ± 0.17
UCUCAGCAAUAUUACGCUAG	-2.76 ± 0.25	-1.8 ± 0.25
UCUCAGCAAUAUUACGGAAC	-3.48 ± 0.41	–
UCUCAGCAAUAUUACGGACC	–	-2.13 ± 0.34
UCUCAGCAAUAUUACGGACG	-1.84 ± 0.14	-0.508 ± 0.13
UCUCAGCAAUAUUACGGUUA	-0.801 ± 0.083	-0.239 ± 0.091
UCUCAGCAAUAUUACGUACG	-2.45 ± 0.14	-1.26 ± 0.13
UCUCAGCAAUAUUACGUUAA	-2.79 ± 0.19	-2.26 ± 0.17
UCUCAGCAAUAUUACGUUAU	-2.98 ± 0.095	-2.8 ± 0.13
UCUCAGCAAUAUUACGUUGC	–	-2.73 ± 0.23
UCUGAGCAAUAUUACGAAAC	-2.45 ± 0.31	–
UCUGAGCAAUAUUACGACGU	-0.648 ± 0.13	0.778 ± 0.13
UCUGAGCAAUAUUACGAGCA	–	-2.23 ± 0.36
UCUGAGCAAUAUUACGAGGG	-4.14 ± 0.27	-2.5 ± 0.3
UCUGAGCAAUAUUACGAGUC	-2.7 ± 0.41	–
UCUGAGCAAUAUUACGCACA	–	-1.23 ± 0.49

Sequence	self-splicing fitness (ln) (30 °C)	self-splicing fitness (ln) (37 °C)
UCUGAGCAAUAUUACGCAGU	-2.4 ± 0.35	-1.08 ± 0.21
UCUGAGCAAUAUUACGCCGG	-1.96 ± 0.22	-0.975 ± 0.24
UCUGAGCAAUAUUACGCGCU	-2.53 ± 0.28	-1.59 ± 0.3
UCUGAGCAAUAUUACGCGGU	-2.71 ± 0.28	-2.5 ± 0.28
UCUGAGCAAUAUUACGCUAU	-3.8 ± 0.22	-3.15 ± 0.28
UCUGAGCAAUAUUACGGAGG	-3.34 ± 0.32	-1.79 ± 0.27
UCUGAGCAAUAUUACGGCUC	-2.63 ± 0.22	-2.14 ± 0.24
UCUGAGCAAUAUUACGGUAU	-2.41 ± 0.18	-2.5 ± 0.44
UCUGAGCAAUAUUACGGUUA	-2.82 ± 0.18	-2.05 ± 0.14
UCUGAGCAAUAUUACGGUUG	-3.75 ± 0.23	-3.15 ± 0.3
UCUGAGCAAUAUUACGUAAC	-3.44 ± 0.33	-1.55 ± 0.2
UCUGAGCAAUAUUACGUAGC	–	-2.04 ± 0.27
UCUGAGCAAUAUUACGUAGG	-0.323 ± 0.087	-0.306 ± 0.13
UCUGAGCAAUAUUACGUGGC	-3.1 ± 0.25	-1.94 ± 0.23
UCUGAGCAAUAUUACGUUGC	-3.64 ± 0.28	–
UCUGAGCAAUAUUACGUUUA	-2.83 ± 0.17	-2.65 ± 0.19
UCUGAGCAAUAUUACGUUUC	-2.44 ± 0.22	-0.767 ± 0.21
UCUUAGCAAUAUUACGAAUA	-3.59 ± 0.47	-0.936 ± 0.17
UCUUAGCAAUAUUACGAAUU	–	-2.06 ± 0.24
UCUUAGCAAUAUUACGAGAA	-2.37 ± 0.47	–
UCUUAGCAAUAUUACGAGUG	-0.964 ± 0.065	-0.162 ± 0.097
UCUUAGCAAUAUUACGAUUC	-2.05 ± 0.44	–
UCUUAGCAAUAUUACGCACA	-1.04 ± 0.22	-0.879 ± 0.23
UCUUAGCAAUAUUACGCAGG	-3.45 ± 0.43	-1.75 ± 0.38
